Biological target: GST-Nur77 (UniProt P12813 1-601)
Test: EMSA; not given in material (EMSA according to previously described procedures, ref 34)
Details: protein: recombinant; tags: GST; label: 32P (alpha-32P dCTP labeling); annealed to complementary oligonucleotide

GST-Nur77, sequence (P12813 whole entry): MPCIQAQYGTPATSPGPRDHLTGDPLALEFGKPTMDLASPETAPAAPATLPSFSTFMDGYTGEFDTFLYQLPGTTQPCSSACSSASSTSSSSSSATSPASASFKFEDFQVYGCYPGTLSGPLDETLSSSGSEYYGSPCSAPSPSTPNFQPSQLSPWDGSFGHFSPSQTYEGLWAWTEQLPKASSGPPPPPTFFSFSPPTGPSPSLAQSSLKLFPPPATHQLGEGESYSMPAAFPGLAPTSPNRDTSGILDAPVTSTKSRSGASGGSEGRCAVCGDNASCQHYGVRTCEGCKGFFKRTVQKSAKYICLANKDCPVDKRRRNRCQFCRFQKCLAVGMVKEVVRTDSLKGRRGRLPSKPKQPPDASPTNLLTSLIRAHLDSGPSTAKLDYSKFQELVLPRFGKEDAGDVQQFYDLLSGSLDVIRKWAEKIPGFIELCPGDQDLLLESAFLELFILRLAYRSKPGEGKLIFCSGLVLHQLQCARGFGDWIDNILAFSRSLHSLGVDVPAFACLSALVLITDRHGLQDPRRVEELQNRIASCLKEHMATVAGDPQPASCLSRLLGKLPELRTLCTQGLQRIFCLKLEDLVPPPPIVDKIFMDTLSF

B1: NBRE oligonucleotide (dsDNA)
DNA 1: GGGGCTCGTGCGAAAAGGTCAAGCGCTA
DNA 2: TAGCGCTTGACCTTTTCGCACGAGCCCC
binding result: binds
